Reference: paper PMC5755574

Target: Alcaligenes xylosoxidans copper nitrite reductase (Alcaligenes xylosoxidans)
Test: crystal structure; as-isolated AxNiR crystals, space group R3, one monomer in the asymmetric unit, trimer formed by crystal symmetry; SRX resting state at 1.6 Å (BL41XU, SPring-8, cryo); the SF-ROX structure (SACLA XFEL, 100 K, 1.6 Å) from the same batch of crystals has near-identical global architecture

stoichiometry N: 3
Substance: Alcaligenes xylosoxidans copper nitrite reductase (enzyme)
